Results on five molecules are retold here after paper PMC8284805, “Mechanism underlying the DNA-binding preferences of the Vibrio cholerae and vibriophage VP882 VqmA quorum-sensing receptors”.

For series [1], the system named is GST-DBDPhage (Vibriophage VP882). Kind of series: EMSA. Particulars: EMSA: 25 nM DNA, 18.75-600 nM protein (dimer), 6% DNA retardation gel, SYBR Green; buffer, pH and temperature not given (cited protocol); EC50 values only in …. (In general: Mobility shift assays separate free from complexed probe on a gel.)
Series [2] addresses GST-DBDPhage (GST fused to the N-terminus of the VqmAPhage DNA-binding domain) (not stated | vibriophage VP882). In words: SEC; gel filtration of the purified proteins, UV280 traces (S3D Fig).
For series [3], the target named is GST-DBDVc (GST fused to the N-terminus of the VqmAVc DNA-binding domain) (not stated | Vibrio cholerae). The description is as above.
Series [4] has as its target T1, VqmAPhage (Vibriophage VP882, UniProt A2I306 1-235).
T1 sequence: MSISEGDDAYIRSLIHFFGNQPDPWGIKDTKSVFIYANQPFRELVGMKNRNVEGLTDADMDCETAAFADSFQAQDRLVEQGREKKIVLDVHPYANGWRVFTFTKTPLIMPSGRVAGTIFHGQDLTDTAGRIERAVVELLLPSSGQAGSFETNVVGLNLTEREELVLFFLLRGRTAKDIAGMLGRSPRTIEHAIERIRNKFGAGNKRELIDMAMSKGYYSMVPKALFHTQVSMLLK
Kind of series: EMSA; half as strong as PvqmR*; EMSA: 25 nM DNA, 18.75-600 nM protein (dimer), 6% DNA retardation gel, SYBR Green; buffer, pH and temperature not given (cited protocol); EC50 values only in S2A Fig. To be noted: protein: recombinant; chain copies: 2; blunt.

Series [5] concerns the target VqmAVc (Vibrio cholerae, UniProt A0A0F0AZW0 1-246). Kind of series: EMSA; EMSA: 25 nM DNA, 18.75-600 nM protein (dimer), 6% DNA retardation gel, SYBR Green; buffer, pH and temperature not given (cited protocol); EC50 values only in S2A Fig. To be noted: protein: recombinant; chain copies: 2; blunt.
The target of series [6] is T1, VqmAPhage. The series is described as above. Particulars: protein: recombinant; chain copies: 2; blunt.

As to “GAATACACTCCTTGTAAGTGATTGTTATAAGGAGCTTTATTCTTGATGCATATAAGAAATACCGATAGGGGGAAAAATACCCTGATAAGCAGCTGCTAAAATTGATAAATGTCAATAAGCGAAGGGGATGATGC (double strand) [Pqtip]”, the binding signal (fold stronger than PvqmR) in series [1] was determined as 5.

One may read the stoichiometry N as a count of units in the complex or per binding partner. “GST-DBDPhage (GST fused to the N-terminus of the VqmAPhage DNA-binding domain)” registered a stoichiometry N in series [2] of 2. “GST-DBDVc (GST fused to the N-terminus of the VqmAVc DNA-binding domain)” yielded a stoichiometry N in series [3] of 2.

B1: Pqtip* (dsDNA)
DNA 1: GTGATTGTTATAAGGAGCTTTATTCTTGATGCATATAAGAAATACCGATAGGGGGATTTCCCCCCTGATAAGCAGCTGCTAAAATTGATAAATGTCAATA
DNA 2: TATTGACATTTATCAATTTTAGCAGCTGCTTATCAGGGGGGAAATCCCCCTATCGGTATTTCTTATATGCATCAAGAATAAAGCTCCTTATAACAATCAC
In the case of B1, the binding result in series [4] and in series [5] was “binds” in each case.

B2: PvqmR* (dsDNA)
DNA 1: TCCGAGTATTGCGCGAGCTGTAATGTTGACTCAAACAATTATGCATAAAGGGGGGAAAAATACCCTTTTTCATTTGTACCGCGTTCGGTAAAGTACAAAC
DNA 2: GTTTGTACTTTACCGAACGCGGTACAAATGAAAAAGGGTATTTTTCCCCCCTTTATGCATAATTGTTTGAGTCAACATTACAGCTCGCGCAATACTCGGA
In the case of B2, in series [6], the binding signal is about 2 fold stronger than Pqtip*.
